Data as given in patent publication US20220356230A1.
“And” between values parts separate entries of the source, which are not always exact repeats. Identical values can stand only once.

Tests used:
[1] = biological target: SARS-CoV-2 Spike Protein (Accession number MN908947.3, amino acids 16-1211) on pseudotyped VSV VLPs (SARS-CoV-2) (UniProt P0DTC2)
[2] = biological target: MERS.mFc (mAb2663-L1) (MERS-CoV) (UniProt K9N5Q8); assay: Luminex bead assay, supernatant
[3] = biological target: MERS.hFc (mAb2664-L1) (MERS-CoV) (UniProt K9N5Q8); assay: Luminex bead assay, supernatant
[4] = biological target: Bt-MERS.hFc (mAb2664-L2) (MERS-CoV) (UniProt K9N5Q8); assay: Luminex bead assay, supernatant
[5] = biological target: VLPs expressing VSV only (negative binding control) (vesicular stomatitis virus)
[6] = biological target: SARS-CoV-2 spike protein (S-wt, Wuhan-Hu-1, NCBI Accession Number MN908947.3) on VSV-SARS-CoV-2-S pseudoparticles (SARS-CoV-2) (UniProt P0DTC2); assay: cell-based or functional assay

| Substance | Ratio VSV/Spike:VSV [1] | Binding signal (MFI) [2] | Binding signal (MFI) [3] | Binding signal (MFI) [4] | Antibody Binding Signal (RLU) [5] | mAb neutralization potency (IC50 (M)) [6] |
| --- | --- | --- | --- | --- | --- | --- |
| IgG1 Isotype Control (antibody) | 1 and 2 |  |  |  |  |  |
| mAb10933 (antibody) |  | 22 MFI | 21 MFI | 26 MFI | 82 RLU and 29 RLU |  |
| mAb10934 (antibody) |  | 77 MFI |  |  |  | 5.44e-11 M |
| mAb10936 (antibody) |  | 32 MFI | 26 MFI | 32 MFI |  | 1.11e-10 M |
| mAb10987 (antibody) |  |  |  |  |  | 4.06e-11 M |
